± gives the uncertainty stated by the source.
B1: SAM and SH3 domain-containing protein 1, residues 630 to 700; numbered along this chain, O94885 (parent)
chain: GRPPQPKSVEDLLDRINLKEHMPTFLFNGYEDLDTFKLLEEEDLDELNIRDPEHRAVLLTAVELLQEYDSN

Variants of: B1
Test: abundance fitness (aPCA) (normalised: wild type 0, dead -1); higher = more abundant; growth selection in yeast, the domain comes from the species named
Details: Homo sapiens

| Variant | abundance fitness |
| --- | --- |
| GRPPQPKSVEDLLDRINLKEHMPTFLFNGYGDLDTFKLLEEEDLDELNIRDPEHRAVLLTAVELLQEYDSN [E31G] | 0.313 ± 0.035 |
| GRPPQPKSVEDLLDRINLKEHMPTFLFNGYPDLDTFKLLEEEDLDELNIRDPEHRAVLLTAVELLQEYDSN [E31P] | -0.15 ± 0.039 |
| GRPPQPKSVEDLLDRINLKEHMPTFLFNGYEDLDTFKLLEEEDLDELNIRDPEHRAVLKTAVELLQEYDSN [L59K] | -0.206 ± 0.057 |
| GRPPQPKSVEPLLDRINLKEHMPTFLFNGYEDLDTFKLLEEEDLDELNIRDPEHRAVLLTAVELLQEYDSN [D11P] | -0.92 ± 0.071 |
| GRPPQPKSVEDLLDRINLKEHMPTFLFNGYEDLDTFKLLEEEDLDELNERDPEHRAVLLTAVELLQEYDSN [I49E] | -0.79 ± 0.082 |
| GRPPQPKSVEDLLDRINLKEHMPTFLFNGYEDLDTFKLLEEEDLDELNYRDPEHRAVLLTAVELLQEYDSN [I49Y] | -0.869 ± 0.07 |
| GRPPQPKSVEDLLDRINLKEHMPTFLFNGYEDLDTFKLLEEEDLDELNARDPEHRAVLLTAVELLQEYDSN [I49A] | -0.98 ± 0.072 |
| GRPPQPKSVEDLLDRINLKEHMPTFLFNGYEDLDTFTLLEEEDLDELNIRDPEHRAVLLTAVELLQEYDSN [K37T] | -0.615 ± 0.062 |
| GRPPQPKSVEDLLDRINLKEHMPTFLFNGYEDLDTFMLLEEEDLDELNIRDPEHRAVLLTAVELLQEYDSN [K37M] | -0.16 ± 0.057 |
| GRPPQPKSVEDLLDRINLKEHMPTFLFNGYEDLDTFKLLEEEDLDELNIRDPNHRAVLLTAVELLQEYDSN [E53N] | -0.146 ± 0.05 |
| GRPPQPKSVEDLLDRINLKEHMPTFLFNGYEDLDTFKLLEEEDLDELNIRDPEHRDVLLTAVELLQEYDSN [A56D] | -0.096 ± 0.046 |
| GRPPQPKSVEDLLDRINLKEHMPTFLFNGYEDLDTFKLLEEEDLDEKNIRDPEHRAVLLTAVELLQEYDSN [L47K] | -0.781 ± 0.1 |
| GRPPQPKSVEDLLDRINLKEHMPTDLFNGYEDLDTFKLLEEEDLDELNIRDPEHRAVLLTAVELLQEYDSN [F25D] | -0.672 ± 0.093 |
| GRPPQPKSVEDLLDRINLKEHMPTWLFNGYEDLDTFKLLEEEDLDELNIRDPEHRAVLLTAVELLQEYDSN [F25W] | -0.891 ± 0.088 |
| GRPPQPKSVEDLLDRINLKEHMPTFLFNGYEDLDTFKLLEEEDLDELNIRDPEHRAVLLTAVERLQEYDSN [L64R] | 0.199 ± 0.035 |
| GRPPQPKSVEDLLDRINLKEHMPTFLNNGYEDLDTFKLLEEEDLDELNIRDPEHRAVLLTAVELLQEYDSN [F27N] | 0.418 ± 0.04 |
| GRPPQPKSVEDLLDRINLKEHMPTFLRNGYEDLDTFKLLEEEDLDELNIRDPEHRAVLLTAVELLQEYDSN [F27R] | 0.38 ± 0.033 |
| GRPPQPESVEDLLDRINLKEHMPTFLFNGYEDLDTFKLLEEEDLDELNIRDPEHRAVLLTAVELLQEYDSN [K7E] | -0.002 ± 0.069 |
| GRPPQPDSVEDLLDRINLKEHMPTFLFNGYEDLDTFKLLEEEDLDELNIRDPEHRAVLLTAVELLQEYDSN [K7D] | -0.213 ± 0.06 |

| Variant | abundance fitness |
| --- | --- |
| GRPPQPKSVEDLLDRINLKEHMPTFLFNGYEDLDTFKLLEEEDLDELNIRDPEHRAVLLTPVELLQEYDSN [A61P] | -0.731 ± 0.069 |
| GRPPQPKSVEDLLDRINLKEHMPTFLFNGYEDLDTFKLLEEEDLDELNIRDPEHRAVLLTLVELLQEYDSN [A61L] | -0.997 ± 0.071 |
| GRPPQPKSVEDLLDRINLKEHMPTFLFNGYEDLDTFKLLEEEDLDELNIRDPEHRAVLLTAGELLQEYDSN [V62G] | -0.524 ± 0.065 |
| GRPPQPKSVEDLLDRINLKEHMPTFLFNGYEDLITFKLLEEEDLDELNIRDPEHRAVLLTAVELLQEYDSN [D34I] | -0.793 ± 0.067 |
| GRPPQPKSVEDLLDRINLKEHMPTFLFNGYEDLDTFKGLEEEDLDELNIRDPEHRAVLLTAVELLQEYDSN [L38G] | -0.061 ± 0.038 |
| GRPPQPKSVEDLLDRINLKEHMPTFLFNGYEDLDTFKNLEEEDLDELNIRDPEHRAVLLTAVELLQEYDSN [L38N] | 0.054 ± 0.053 |
| GRPPQPKSVEDLLDRINLKEHMPTFLFNGYEDLDTFKSLEEEDLDELNIRDPEHRAVLLTAVELLQEYDSN [L38S] | -0.005 ± 0.036 |
| GRPPQPKSVEDLLDLINLKEHMPTFLFNGYEDLDTFKLLEEEDLDELNIRDPEHRAVLLTAVELLQEYDSN [R15L] | -0.223 ± 0.037 |
| GRPPQPKSVEDLLDEINLKEHMPTFLFNGYEDLDTFKLLEEEDLDELNIRDPEHRAVLLTAVELLQEYDSN [R15E] | -0.07 ± 0.055 |
| GRPPQPKSVEDLLDRINLYEHMPTFLFNGYEDLDTFKLLEEEDLDELNIRDPEHRAVLLTAVELLQEYDSN [K19Y] | -0.532 ± 0.06 |
| GRPPQPKSVEDLLDRINLLEHMPTFLFNGYEDLDTFKLLEEEDLDELNIRDPEHRAVLLTAVELLQEYDSN [K19L] | 0.127 ± 0.031 |
| GRPPQPKSVEDLLDRINYKEHMPTFLFNGYEDLDTFKLLEEEDLDELNIRDPEHRAVLLTAVELLQEYDSN [L18Y] | -0.863 ± 0.089 |
| GRPPQPKSVEDLLDRINAKEHMPTFLFNGYEDLDTFKLLEEEDLDELNIRDPEHRAVLLTAVELLQEYDSN [L18A] | -0.804 ± 0.064 |
| GRPPNPKSVEDLLDRINLKEHMPTFLFNGYEDLDTFKLLEEEDLDELNIRDPEHRAVLLTAVELLQEYDSN [Q5N] | -0.113 ± 0.055 |
| GRPPCPKSVEDLLDRINLKEHMPTFLFNGYEDLDTFKLLEEEDLDELNIRDPEHRAVLLTAVELLQEYDSN [Q5C] | 0.007 ± 0.064 |
| GRPPQPKSVEDLLDRINLKEHMPTFLFNGYEDLDTFKLLEEEDLGELNIRDPEHRAVLLTAVELLQEYDSN [D45G] | -0.812 ± 0.077 |
| GRPPQPKSVEDLLDRINLKEHMPTFLFNGYEDLDTFKLLEEEDLNELNIRDPEHRAVLLTAVELLQEYDSN [D45N] | -0.272 ± 0.045 |
| GRPPQPKSVEDLLDRINLKEHMPYFLFNGYEDLDTFKLLEEEDLDELNIRDPEHRAVLLTAVELLQEYDSN [T24Y] | -0.98 ± 0.097 |
| GRPPQPKSVEDLLDRINLKEHMPTFLFNGYEDLDTFKLLVEEDLDELNIRDPEHRAVLLTAVELLQEYDSN [E40V] | -0.088 ± 0.047 |

Reference: the Human Domainome abundance scans (Beltran et al. 2025)
